This passage reports Ka results from patent publication CN116023492A (XINJIANG YOUMAI BIOTECHNOLOGY CO LTD, dated 2023).

The target of this experiment is T1, 人PDL1蛋白 (human, UniProt Q9NZQ7 19-239, limits assumed).
T1 construct: Bought recombinant protein; also called human PDL1; B7-H1
As to the kind of experiment: non-competitive ELISA, four coating concentrations of PDL1 (1, 0.5, 0.25, 0.125 ug/mL), KA=(n-1)/(nAb'-Ab), mean of 6 values. In general terms: In an ELISA, binding on a coated surface is turned into a signal by an enzyme label.

T1 sequence (Q9NZQ7 19-239 limits assumed): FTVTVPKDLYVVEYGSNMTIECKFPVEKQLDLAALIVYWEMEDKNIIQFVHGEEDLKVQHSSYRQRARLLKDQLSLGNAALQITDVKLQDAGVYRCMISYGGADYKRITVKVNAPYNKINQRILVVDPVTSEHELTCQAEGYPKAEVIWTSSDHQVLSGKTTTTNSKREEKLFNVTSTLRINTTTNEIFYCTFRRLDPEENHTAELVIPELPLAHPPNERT

B1: 抗人PDL1纳米抗体 Nb2 (VHH)
VHH: QVQLQESGGGSVQAGGSLRLSCIASGVDYNSRTDRMAWFRQVPGKEREGVAAIYTYNNRTYYADSVKGRFTISQDIGKNTVYLQMNSLEPEDTATYYCARDWRFSSGMLDKNMYKYWGQGTQVTVSS
notes: Expressed from pMECS in E. coli TG1, Ni-purified; also called 抗PDL1(Nb2)纳米抗体; not shown: C-terminal HA and His tags from the pMECS vector
B1 registered a Ka of 933000 M⁻¹.
